For this assay, the target named is T1, rabbit Tie2 (form not stated) (rabbit).
T1 construct: also called rabbit ortholog of Tie-2
As to the kind of experiment: SPR, summary table, column Rabbit Tie2, Kd [M].

The values below come from patent US20230287109A1 (INGENIA THERAPEUTICS, published 2023).

B1: PRO593, PEGylated with two 20 kDa linear PEG (Fc fusion)
heavy: EVQLVQSGAEVKKPGASVKVSCKASGYSFTSYWMNWVRQAPGQGLEWMGMIHPSDSETRLNQKFMDRVTMTRDTSTSTVYMELSSLRSEDTAVYYCARGLYGNSWGQGTLVTVSSASTKGPSVFPLAPSSKSTSGGTAALGCLVKDYFPEPVTVSWNSGALTSGVHTFPAVLQSSGLYSLSSVVTVPSSSLGTQTYICNVNHKPSNTKVDKKVEPKSSDKTHTSPPSPAPEAAGGPSVFLFPPKPKDTLMISRTPEVTCVVVDVSHEDPEVKFNWYVDGVEVHNAKTKPREEQYNSTYRVVSVLTVLAQDWLNGKEYKCKVSNKALPAPIEKTISKAKGQPREPQVYTLPPSRDELTKNQVSLTCLVKGFYPSDIAVEWESNGQPENNYKTTPPVLDSDGSFFLYSKLTVDKSRWQQGNVFSCSVMHEALHNHYTQKSLSLSPGKGGGGSGGGGSGGGGSGGGGSSDTGRPFVEMYSEIPEIIHMTEGRELVIPCRVTSPNITVTLKKFPLDTLIPDGKRIIWDSRKGFIISNATYKEIGLLTCEATVNGHLYKTNYLTHRQTNTIIDVVLSPSHGIELSVGEKLVLNCTARTELNVGIDFNWEYPSSKHQHKKLVNRDLKTQSGSEMKKFLSTLTIDGVTRSDQGLYTCAASSGLMTKKNSTFVRVHEKGGSSKCA
light: DIQMTQSPSSLSASVGDRVTITCRASQDIGISLNWYQQEPGKAIKRLIYATSSLDSGVPKRFSGSRSGTEYTLTISSLESEDFADYYCLQYASSPYTFGGGTKLEIKRTVAAPSVFIFPPSDEQLKSGTASVVCLLNNFYPREAKVQWKVDNALQSGNSQESVTEQDSKDSTYSLSSTLTLSKADYEKHKVYACEVTHQGLSSPVTKSFNRGES
modifications: chain 1 pos 676: Cys carrying 20 kDa linear PEG-maleimide, written C (two PEG per antibody, one on each heavy chain).
notes: All interchain disulfide bonds removed
What is called Kd is the concentration at which binding is half-saturated. A lower Kd goes with a tighter complex. B1: the Kd is below 0.127 nM.

B2: PRO593, PEGylated with two 40 kDa branched PEG (Fc fusion)
heavy: EVQLVQSGAEVKKPGASVKVSCKASGYSFTSYWMNWVRQAPGQGLEWMGMIHPSDSETRLNQKFMDRVTMTRDTSTSTVYMELSSLRSEDTAVYYCARGLYGNSWGQGTLVTVSSASTKGPSVFPLAPSSKSTSGGTAALGCLVKDYFPEPVTVSWNSGALTSGVHTFPAVLQSSGLYSLSSVVTVPSSSLGTQTYICNVNHKPSNTKVDKKVEPKSSDKTHTSPPSPAPEAAGGPSVFLFPPKPKDTLMISRTPEVTCVVVDVSHEDPEVKFNWYVDGVEVHNAKTKPREEQYNSTYRVVSVLTVLAQDWLNGKEYKCKVSNKALPAPIEKTISKAKGQPREPQVYTLPPSRDELTKNQVSLTCLVKGFYPSDIAVEWESNGQPENNYKTTPPVLDSDGSFFLYSKLTVDKSRWQQGNVFSCSVMHEALHNHYTQKSLSLSPGKGGGGSGGGGSGGGGSGGGGSSDTGRPFVEMYSEIPEIIHMTEGRELVIPCRVTSPNITVTLKKFPLDTLIPDGKRIIWDSRKGFIISNATYKEIGLLTCEATVNGHLYKTNYLTHRQTNTIIDVVLSPSHGIELSVGEKLVLNCTARTELNVGIDFNWEYPSSKHQHKKLVNRDLKTQSGSEMKKFLSTLTIDGVTRSDQGLYTCAASSGLMTKKNSTFVRVHEKGGSSKCA
light: DIQMTQSPSSLSASVGDRVTITCRASQDIGISLNWYQQEPGKAIKRLIYATSSLDSGVPKRFSGSRSGTEYTLTISSLESEDFADYYCLQYASSPYTFGGGTKLEIKRTVAAPSVFIFPPSDEQLKSGTASVVCLLNNFYPREAKVQWKVDNALQSGNSQESVTEQDSKDSTYSLSSTLTLSKADYEKHKVYACEVTHQGLSSPVTKSFNRGES
modifications: chain 1 pos 676: Cys carrying 40 kDa branched PEG-maleimide, written C (one PEG per heavy chain, two per antibody)
As for B2, the dissociation constant Kd was below 0.13 nM.
